Blank lines part the entries; values can stand above or below the binder they belong to.
B1: His-HSF1 (purified) (natural protein, human, UniProt Q00613 1-529, looked up)
chain: MDLPVGPGAAGPSNVPAFLTKLWTLVSDPDTDALICWSPSGNSFHVFDQGQFAKEVLPKYFKHNNMASFVRQLNMYGFRKVVHIEQGGLVKPERDDTEFQHPCFLRGQEQLLENIKRKVTSVSTLKSEDIKIRQDSVTKLLTDVQLMKGKQECMDSKLLAMKHENEALWREVASLRQKHAQQQKVVNKLIQFLISLVQSNRILGVKRKIPLMLNDSGSAHSMPKYSRQFSLEHVHGSGPYSAPSPAYSSSSLYAPDAVASSGPIISDITELAPASPMASPGGSIDERPLSSSPLVRVKEEPPSPPQSPRVEEASPGRPSSVDTLLSPTALIDSILRESEPAPASVTALTDARGHTDTEGRPPSPPPTSTPEKCLSVACLDKNELSDHLDAMDSNLDNLQTMLSSHGFSVDTSALLDLFSPSVTVPDMSLPDLDSSLASIQELLSPQEPPRPPEAENSSPDSGKQLVHYTAQPLFLLDPGSVDTGSNDLPVLFELGEGSYFSEGDGFAEDPTISLLTGSEPPKAKDPTVS
B3: FLAG-eEF1BδL (purified) (natural protein)
chain: MRSGKASCTLETVWEDKHKYEEAERRFYEHEATQAAASAQQLPAEGPAMNGPGQDDPEDADEAEAPDGGSRRDPRKSQDSRKPLQKKRKRSPKSGLGPADLALLGLSAERVWLDKSLFDQAESSYRQKLADVAAQAAWPPALAPWGLCTHGNQVACHHVTWGIWVNKSSFDQAERAFVEWSQALLLAPDGSRRQGTPNTGQQVAVPDLAHQPSPPVNGQPPLGSLQALVREVWLEKPRYDAAERGFYEALFDGHPPGKVRLQERAGLAEGARRGRRDRRGRNILGNKRAGLRRADGEAPSALPYCYFLQKDAEAPWLSKPAYDSAECRHHAAEALRVAWCLEAASLSHRPGPRSGLSVSSLRPNRKMATNFLAHEKIWFDKFKYDDAERRFYEQMNGPVAGASRQENGASVILRDIARARENIQKSLAGSSGPGASSGTSGDHGELVVRIASLEVENQSLRGVVQELQQAISKLEARLNVLEKSSPGHRATAPQTQHVSPMRQVEPPAKKPATPAEDDEDDDIDLFGSDNEEEDKEAAQLREERLRQYAEKKAKKPALVAKSSILLDVKPWDDETDMAQLEACVRSIQLDGLVWGASKLVPVGYGIRKLQIQCVVEDDKVGTDLLEEEITKFEEHVQSVDIAAFNKI

Columns and labels:
Assay in all cases: pull-down
[1] = molecular target: B3
[2] = molecular target: B1
[3] = molecular target: GST-RNF20/FLAG-RNF40 (human, UniProt Q5VTR2 1-975; O75150 1-1001)
Chain of GST-RNF20/FLAG-RNF40 (Q5VTR2 whole entry, chain 1 of 2): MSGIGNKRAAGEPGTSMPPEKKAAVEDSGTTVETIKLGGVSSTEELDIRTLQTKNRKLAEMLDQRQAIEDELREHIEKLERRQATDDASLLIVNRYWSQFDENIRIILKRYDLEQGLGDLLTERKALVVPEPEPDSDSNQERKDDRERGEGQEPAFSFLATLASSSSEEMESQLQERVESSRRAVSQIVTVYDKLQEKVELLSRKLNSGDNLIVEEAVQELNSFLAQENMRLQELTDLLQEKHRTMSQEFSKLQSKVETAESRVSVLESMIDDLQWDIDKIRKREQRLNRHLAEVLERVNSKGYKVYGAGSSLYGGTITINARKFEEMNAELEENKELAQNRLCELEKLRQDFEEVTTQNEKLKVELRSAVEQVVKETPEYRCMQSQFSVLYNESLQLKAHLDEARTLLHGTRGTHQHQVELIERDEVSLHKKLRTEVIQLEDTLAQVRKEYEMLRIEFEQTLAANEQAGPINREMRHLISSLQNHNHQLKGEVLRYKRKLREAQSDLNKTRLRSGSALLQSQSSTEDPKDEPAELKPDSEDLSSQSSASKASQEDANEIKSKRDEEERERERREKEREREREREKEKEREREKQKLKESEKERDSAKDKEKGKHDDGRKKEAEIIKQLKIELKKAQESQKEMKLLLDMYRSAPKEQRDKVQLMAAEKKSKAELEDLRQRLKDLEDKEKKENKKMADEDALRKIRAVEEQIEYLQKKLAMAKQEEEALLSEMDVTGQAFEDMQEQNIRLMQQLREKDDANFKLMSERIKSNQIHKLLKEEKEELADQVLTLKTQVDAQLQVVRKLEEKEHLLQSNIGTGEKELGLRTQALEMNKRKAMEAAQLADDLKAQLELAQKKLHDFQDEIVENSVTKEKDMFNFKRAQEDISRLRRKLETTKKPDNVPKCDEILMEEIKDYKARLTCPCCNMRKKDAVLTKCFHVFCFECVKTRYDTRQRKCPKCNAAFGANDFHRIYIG
Chain of GST-RNF20/FLAG-RNF40 (O75150 whole entry, chain 2 of 2): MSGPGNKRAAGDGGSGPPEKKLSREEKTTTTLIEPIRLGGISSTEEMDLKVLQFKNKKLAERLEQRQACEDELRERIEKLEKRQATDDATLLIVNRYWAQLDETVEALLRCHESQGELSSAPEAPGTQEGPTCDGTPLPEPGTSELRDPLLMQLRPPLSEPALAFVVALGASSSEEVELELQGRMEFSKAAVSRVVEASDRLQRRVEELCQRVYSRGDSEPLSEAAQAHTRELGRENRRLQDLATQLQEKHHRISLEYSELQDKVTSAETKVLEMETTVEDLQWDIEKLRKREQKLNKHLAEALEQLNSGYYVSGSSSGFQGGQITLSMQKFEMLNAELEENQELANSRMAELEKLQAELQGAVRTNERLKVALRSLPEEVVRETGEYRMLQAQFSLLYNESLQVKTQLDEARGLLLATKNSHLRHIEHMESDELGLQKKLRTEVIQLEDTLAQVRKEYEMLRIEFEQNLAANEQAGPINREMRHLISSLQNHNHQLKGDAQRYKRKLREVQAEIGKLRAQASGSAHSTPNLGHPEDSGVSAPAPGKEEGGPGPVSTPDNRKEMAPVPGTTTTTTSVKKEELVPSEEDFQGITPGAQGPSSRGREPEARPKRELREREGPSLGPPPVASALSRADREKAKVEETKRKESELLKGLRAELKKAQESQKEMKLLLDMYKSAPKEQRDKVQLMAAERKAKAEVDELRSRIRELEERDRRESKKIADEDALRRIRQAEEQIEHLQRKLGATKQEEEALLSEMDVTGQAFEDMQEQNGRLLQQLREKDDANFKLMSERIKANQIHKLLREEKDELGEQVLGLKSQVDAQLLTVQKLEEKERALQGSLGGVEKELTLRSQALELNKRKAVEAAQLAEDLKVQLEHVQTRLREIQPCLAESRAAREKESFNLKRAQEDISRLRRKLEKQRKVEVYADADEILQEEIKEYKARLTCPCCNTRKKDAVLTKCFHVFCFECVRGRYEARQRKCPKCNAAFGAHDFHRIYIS

Binder: B1
binding result [1]: binds

binding result [2]: binds
B2: GST-eEF1BδL fragment of residues 181–367 (domain or fragment, human, UniProt P29692-2 181-367, looked up)
chain: SQALLLAPDGSRRQGTPNTGQQVAVPDLAHQPSPPVNGQPPLGSLQALVREVWLEKPRYDAAERGFYEALFDGHPPGKVRLQERAGLAEGARRGRRDRRGRNILGNKRAGLRRADGEAPSALPYCYFLQKDAEAPWLSKPAYDSAECRHHAAEALRVAWCLEAASLSHRPGPRSGLSVSSLRPNRKM

Binder: B3
binding result [3]: binds

Source: PMC6451099 (Nucleic Acids Research, 2019)
